Data reported in the supplement of paper PMC9112550, “Optimization of the antimicrobial peptide Bac7 by deep mutational scanning” (BMC Biology, 2022).

Test system: Escherichia coli TOP10
Assay: shrunken log2 fold change of peptide-encoding DNA abundance (4.5 h post-induction vs induction); higher = less antimicrobial activity (less host growth inhibition)
Conditions: time post-induction: 4.5 h; library: site-saturation at positions 5, 18, 19, 20
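Further: peptides expressed intracellularly from a pBAD plasmid library in pooled LB shake-flask culture, induced with 0.3% L-arabinose, DNA abundance read by NGS, three biological replicates, DESeq2 with apeglm shrinkage.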

| Sequence | shrunken log2 fold change |
| --- | --- |
| RRIRARPPRLPRPRPRPMLTPRP | 0.466 |
| RRIRPRPPRLPRPRPRPHWWPRP | 0.507 |
| RRIRRRPPRLPRPRPRPIYFPRP | 0.124 |
| RRIRDRPPRLPRPRPRPPSIPRP | -0.0216 |
| RRIRLRPPRLPRPRPRPYEAPRP | -1.12 |
| RRIRDRPPRLPRPRPRPYYIPRP | -0.0955 |
| RRIRCRPPRLPRPRPRPCWSPRP | -0.352 |
| RRIRWRPPRLPRPRPRPNDSPRP | -0.134 |
| RRIRERPPRLPRPRPRPREDPRP | -0.0632 |
| RRIRQRPPRLPRPRPRPMIMPRP | 0.0999 |
| RRIRTRPPRLPRPRPRPARHPRP | 0.189 |
| RRIRRRPPRLPRPRPRPLKYPRP | 0.0102 |
| RRIRKRPPRLPRPRPRPVVCPRP | 0.126 |
| RRIRGRPPRLPRPRPRPNIPPRP | -0.251 |
| RRIRTRPPRLPRPRPRPTFDPRP | -0.0153 |
| RRIRWRPPRLPRPRPRPWCCPRP | -0.065 |
| RRIRCRPPRLPRPRPRPWERPRP | -0.118 |
| RRIRCRPPRLPRPRPRPEPPPRP | 2.06 |
| RRIRKRPPRLPRPRPRPWELPRP | 0.221 |
| RRIRQRPPRLPRPRPRPMEYPRP | -0.479 |
| RRIRNRPPRLPRPRPRPMPLPRP | -0.0789 |
| RRIRYRPPRLPRPRPRPNQCPRP | -0.352 |

| Sequence | shrunken log2 fold change |
| --- | --- |
| RRIRTRPPRLPRPRPRPFDNPRP | -1.32 |
| RRIRWRPPRLPRPRPRPKEPPRP | 0.117 |
| RRIRCRPPRLPRPRPRPCIYPRP | -0.253 |
| RRIRLRPPRLPRPRPRPNEEPRP | 0.00826 |
| RRIRYRPPRLPRPRPRPDTPPRP | 0.0497 |
| RRIRCRPPRLPRPRPRPTNRPRP | -0.356 |
| RRIRWRPPRLPRPRPRPRSCPRP | 0.083 |
| RRIRDRPPRLPRPRPRPDIMPRP | 0.0348 |
| RRIRERPPRLPRPRPRPVHDPRP | -0.687 |
| RRIRHRPPRLPRPRPRPMVGPRP | -0.0276 |
| RRIRQRPPRLPRPRPRPVPNPRP | 0.154 |
| RRIRCRPPRLPRPRPRPNIEPRP | -0.279 |
| RRIRVRPPRLPRPRPRPCDNPRP | -0.418 |
| RRIRQRPPRLPRPRPRPNAYPRP | -0.279 |
| RRIRRRPPRLPRPRPRPGVCPRP | 0.369 |
| RRIRARPPRLPRPRPRPAHQPRP | 0.568 |
| RRIRERPPRLPRPRPRPQCGPRP | -0.43 |
| RRIRTRPPRLPRPRPRPMNDPRP | -0.0997 |
| RRIRKRPPRLPRPRPRPRKFPRP | 0.106 |
| RRIRARPPRLPRPRPRPMRSPRP | 0.0669 |
| RRIRMRPPRLPRPRPRPGWTPRP | 0.185 |
| RRIRERPPRLPRPRPRPVRHPRP | 0.131 |

| Sequence | shrunken log2 fold change |
| --- | --- |
| RRIRDRPPRLPRPRPRPRGSPRP | 0.255 |
| RRIRARPPRLPRPRPRPWKHPRP | -0.0402 |
| RRIRMRPPRLPRPRPRPNHRPRP | -0.113 |
| RRIRERPPRLPRPRPRPYANPRP | 0.0234 |
| RRIRARPPRLPRPRPRPHRRPRP | 0.212 |
| RRIRFRPPRLPRPRPRPAYYPRP | -0.227 |
| RRIRIRPPRLPRPRPRPNFYPRP | -0.565 |
| RRIRVRPPRLPRPRPRPYLVPRP | -0.511 |
| RRIRKRPPRLPRPRPRPEVEPRP | 2.8 |
| RRIRIRPPRLPRPRPRPQWEPRP | -0.0938 |
| RRIRLRPPRLPRPRPRPCQWPRP | -0.0969 |
| RRIRARPPRLPRPRPRPCAMPRP | 0.397 |
| RRIRRRPPRLPRPRPRPCGDPRP | 0.478 |
| RRIRERPPRLPRPRPRPKSTPRP | -0.42 |
| RRIRQRPPRLPRPRPRPPMGPRP | 0.187 |
| RRIRIRPPRLPRPRPRPAGPPRP | 0.153 |
| RRIRQRPPRLPRPRPRPNYNPRP | -0.0928 |
| RRIRGRPPRLPRPRPRPDYTPRP | 0.343 |
| RRIRNRPPRLPRPRPRPMVTPRP | -0.157 |
| RRIRPRPPRLPRPRPRPNTWPRP | 0.272 |
| RRIRKRPPRLPRPRPRPSQGPRP | 0.0922 |
| RRIRRRPPRLPRPRPRPDHKPRP | 0.027 |

| Sequence | shrunken log2 fold change |
| --- | --- |
| RRIRLRPPRLPRPRPRPGKVPRP | -0.0116 |
| RRIRARPPRLPRPRPRPCPEPRP | 0.179 |
| RRIRYRPPRLPRPRPRPQNYPRP | -0.81 |
| RRIRARPPRLPRPRPRPQFPPRP | 0.0321 |
| RRIRPRPPRLPRPRPRPFHEPRP | -0.187 |
| RRIRFRPPRLPRPRPRPYASPRP | -0.0651 |
| RRIRRRPPRLPRPRPRPLWMPRP | 0.0635 |
| RRIRVRPPRLPRPRPRPWSCPRP | -0.155 |
| RRIRPRPPRLPRPRPRPYWTPRP | -0.68 |
| RRIRHRPPRLPRPRPRPEIHPRP | 0.0389 |
| RRIRFRPPRLPRPRPRPIHCPRP | -0.138 |
| RRIRLRPPRLPRPRPRPFDHPRP | -0.0264 |
| RRIRCRPPRLPRPRPRPTYPPRP | -0.274 |
| RRIRVRPPRLPRPRPRPCKIPRP | -0.376 |
| RRIRKRPPRLPRPRPRPVPTPRP | 0.916 |
| RRIRERPPRLPRPRPRPWCRPRP | -0.126 |
| RRIRRRPPRLPRPRPRPGCSPRP | 0.344 |
| RRIRTRPPRLPRPRPRPADAPRP | -0.0445 |
| RRIRMRPPRLPRPRPRPPSWPRP | 0.245 |
| RRIRARPPRLPRPRPRPNFKPRP | 0.0298 |
| RRIRFRPPRLPRPRPRPDFDPRP | -0.15 |
| RRIRNRPPRLPRPRPRPFLSPRP | -0.246 |

| Sequence | shrunken log2 fold change |
| --- | --- |
| RRIRRRPPRLPRPRPRPVNYPRP | -0.291 |
| RRIRQRPPRLPRPRPRPFQTPRP | -0.01 |
| RRIRPRPPRLPRPRPRPRIDPRP | -0.0848 |
| RRIRPRPPRLPRPRPRPGYEPRP | -0.172 |
| RRIRKRPPRLPRPRPRPRQQPRP | 0.395 |
| RRIRVRPPRLPRPRPRPLDNPRP | -0.0763 |
| RRIRHRPPRLPRPRPRPLGEPRP | 0.433 |
| RRIRQRPPRLPRPRPRPGLSPRP | 0.0405 |
| RRIRGRPPRLPRPRPRPPDDPRP | 1.34 |
| RRIRNRPPRLPRPRPRPMCSPRP | -0.0636 |
| RRIRHRPPRLPRPRPRPDRCPRP | -0.205 |
| RRIRARPPRLPRPRPRPNPHPRP | 0.0863 |
| RRIRSRPPRLPRPRPRPYMGPRP | -0.776 |
| RRIRIRPPRLPRPRPRPIFEPRP | -0.0533 |
| RRIRNRPPRLPRPRPRPNWQPRP | -0.123 |
| RRIRMRPPRLPRPRPRPTYVPRP | -0.197 |
| RRIRQRPPRLPRPRPRPEWRPRP | -0.00139 |
| RRIRARPPRLPRPRPRPMQAPRP | -0.00917 |
| RRIRMRPPRLPRPRPRPLSYPRP | 0.134 |
| RRIRSRPPRLPRPRPRPPYEPRP | 0.0519 |
| RRIRSRPPRLPRPRPRPWMPPRP | -0.433 |
